“And” between values parts separate entries of the source, which are not always exact repeats. Equal entries are not always repeated.
Columns and labels:
[1] = substrate: CC(=O)N[C@@H](CCC(=O)O)C(=O)N[C@@H](C)C(=O)N[C@@H](CC(C)C)C(=O)N1CCC[C@H]1C(=O)N[C@@H](CCCCN)C(=O)N[C@@H](CCCCNC(=O)CCCCCCCNC(=O)c1ccccc1N)C(=O)N[C@@H](Cc1ccc(O)c([N+](=O)[O-])c1)C(=O)NCC(=O)NCC(N)=O; experiment: purified protein, by the assay type; details: other: Sirt2; measured using MTP fluorescence reader (footnote b); 37.0 °C
Method: (§3) Each reaction mixture contained assay-buffer, 0.5 mM NAD^+ and various peptide concentrations (0.1–100 μM) and was preincubated for 5 minutes at 37 °C. The reaction was started by adding human sirtuin (0.1–0.5 μM) and observed for 5–10 minutes. Product formation could be monitored by increase of relative fluorescence. This signal was converted into product concentration via calibration lines. The slope of the linear regression of product formation against time yielded the reaction velocity rates in μM/s. KM and kcat were obtained by non-linear regression according to Michaelis-Menten. All measurements were done in duplicates. For determination of reaction velocity rates in μM/s calibration lines were necessary. […] The reaction mixture was analyzed with HPLC, to control if the entire peptide substrate was turned to product.
(§4) The reactions (total volume 100 μl) were measured in black low-binding 96-well microtiter plates (NUNC). Assay-buffer, 500 μM NAD^+ and 0.07–200 μM peptide substrate were pre-incubated at 37 °C for 5 min. The reaction was started by adding human sirtuin (0.01–0.5 μM). The signals were converted into product concentration via calibration lines and the resulting data were evaluated as described above (single fluorescence measurement). […] All measurements were done in duplicates. The reaction mixture for the calibration lines was prepared as described for the single fluorescence measurements.

[2] = substrate: COc1ccc2c(C[C@H](NC(=O)[C@H](CCCCNC(=O)CCCCCCCCCCNC(=O)c3cc([N+](=O)[O-])ccc3N)NC(=O)[C@H](CCCCN)NC(=O)[C@@H]3CCCN3C(=O)[C@H](CC(C)C)NC(=O)[C@H](C)NC(=O)[C@H](CCC(=O)O)NC(C)=O)C(=O)NCC(=O)NCC(N)=O)cc(=O)oc2c1; experiment: purified protein, by the assay type; details: other: MTPR (microtiter plate reader); Sirt2; 37.0 °C
Method: as §3, §4

[3] = substrate: CC(=O)N[C@@H](CCC(=O)O)C(=O)N[C@@H](C)C(=O)N[C@@H](CC(C)C)C(=O)N1CCC[C@H]1C(=O)N[C@@H](CCCCN)C(=O)N[C@@H](CCCCNC(=O)CCCCCNC(=O)CCCCCNC(=O)c1ccccc1N)C(=O)N[C@@H](Cc1ccc(O)c([N+](=O)[O-])c1)C(=O)NCC(=O)NCC(N)=O; experiment: purified protein, by the assay type; details: other: Sirt2; measured using MTP fluorescence reader (footnote b); 37.0 °C
Method: as §3, §4

[4] = substrate: CC(=O)N[C@@H](CCC(=O)O)C(=O)N[C@@H](C)C(=O)N[C@@H](CC(C)C)C(=O)N1CCC[C@H]1C(=O)N[C@@H](CCCCN)C(=O)N[C@@H](CCCCNC(=O)CCCCCCCCCCNC(=O)CN1C(=O)c2cccc3c(N(C)C)ccc(c23)C1=O)C(=O)N[C@@H](Cc1ccc(O)c([N+](=O)[O-])c1)C(=O)NCC(=O)NCC(N)=O; experiment: purified protein, by the assay type; details: other: MTPR (microtiter plate reader); Sirt2; 37.0 °C
Method: as §3, §4

[5] = substrate: CC(=O)N[C@@H](CCC(=O)O)C(=O)N[C@@H](C)C(=O)N[C@@H](CC(C)C)C(=O)N1CCC[C@H]1C(=O)N[C@@H](CCCCN)C(=O)N[C@@H](CCCCNC(=O)CCCCCCCCCCNC(=O)c1ccccc1N)C(=O)N[C@@H](Cc1ccc(O)c([N+](=O)[O-])c1)C(=O)NCC(=O)NCC(N)=O; experiment: purified protein, by the assay type; details: other: Sirt2, measured using fluorescence spectrophotometer (footnote a), 0.5 mM NAD+, 37 °C
Method: as §3, §4

[6] = substrate: CC(=O)N[C@@H](CCC(=O)O)C(=O)N[C@@H](C)C(=O)N[C@@H](CC(C)C)C(=O)N1CCC[C@H]1C(=O)N[C@@H](CCCCN)C(=O)N[C@@H](CCCCNC(=O)CCCCCNC(=O)c1ccccc1N)C(=O)N[C@@H](Cc1ccc(O)c([N+](=O)[O-])c1)C(=O)NCC(=O)NCC(N)=O; experiment: purified protein, by the assay type; details: other: Sirt2, measured using fluorescence spectrophotometer (footnote a), 0.5 mM NAD+, 37 °C
Method: as §3, §4

[7] = substrate: CCCCCCCCCCCCCC(=O)NCCCC[C@H](NC(=O)[C@H](CCCCN)NC(=O)[C@@H]1CCCN1C(=O)[C@H](CC(C)C)NC(=O)[C@H](C)NC(=O)[C@H](CCC(=O)O)NC(C)=O)C(=O)N[C@H](C(=O)NCC(=O)NCC(N)=O)[C@@H](C)O; experiment: HPLC based activity assay; type: biochemical, human; details: other: HPLC; Sirt2; pH 7.8; 37.0 °C
Method: (§1) For the determination of kinetic constants for all sirtuin mediated reactions solutions containing 20 mM TRIS/HCl pH 7.8, 150 mM NaCl, 5 mM MgCl2 (assay-buffer), 500 μM NAD^+ and varying substrate concentrations (0.5–100 μM) were used. Deacylation was started by adding human sirtuin to reach a final concentration of 0.01–0.5 μM. Enzyme-catalyzed reaction was stopped using TFA (1% final concentration) after 1 min to 180 min of incubation at 37 °C depending on substrate reactivity. The cleavage rate of the different TNFα peptide derivatives was analyzed using analytical reversed phase HPLC. 40 to 80 μl of compounds or reaction solutions were injected and separated using a linear gradient from 5% to 95% solvent B within 6min. The product and substrate peaks were quantified using absorbance at 220 nm or 365 nm (absorption of 3-Nitrotyrosyl moiety). The peak areas were integrated and converted to initial velocity rates calculated from the ratio of product area to total peak area. Linear regression of conversions plotted against time yielded reaction rates in μM/min (relative conversion below 20% of substrate). Non-linear regression according to Michaelis-Menten of the reaction rates at different substrate concentrations yielded KM- and kcat-values using the program SigmaPlot 8 (Systat Software, San Jose, USA). All measurements were done in duplicates.
(§2) The reactions were performed with 0.1- 0.5 µM sirtuin, 500 µM NAD^+ and 50µM 13/16. All reactions were done in duplicates (n=2).

[8] = substrate: CC(=O)N[C@@H](CCC(=O)O)C(=O)N[C@@H](C)C(=O)N[C@@H](CC(C)C)C(=O)N1CCC[C@H]1C(=O)N[C@@H](CCCCN)C(=O)N[C@@H](CCCCNC(=O)CCCCCCCCCCNC(=O)c1ccccc1N)C(=O)N[C@@H](Cc1ccc(O)c([N+](=O)[O-])c1)C(=O)NCC(=O)NCC(N)=O; experiment: HPLC based activity assay; type: biochemical, human; details: other: HPLC; Sirt2; pH 7.8; 37.0 °C
Method: as §1, §2

[9] = substrate: CC(=O)N[C@@H](CCC(=O)O)C(=O)N[C@@H](C)C(=O)N[C@@H](CC(C)C)C(=O)N1CCC[C@H]1C(=O)N[C@@H](CCCCN)C(=O)N[C@@H](CCCCNC(=O)CCCCCNC(=O)c1ccccc1N)C(=O)N[C@@H](Cc1ccc(O)c([N+](=O)[O-])c1)C(=O)NCC(=O)NCC(N)=O; experiment: HPLC based activity assay; type: biochemical, human; details: other: HPLC; Sirt2; pH 7.8; 37.0 °C
Method: as §1, §2

B1: Sirt2 (Homo sapiens) (protein)
chain: MAEPDPSHPLETQAGKVQEAQDSDSDSEGGAAGGEADMDFLRNLFSQTLSLGSQKERLLDELTLEGVARYMQSERCRRVICLVGAGISTSAGIPDFRSPSTGLYDNLEKYHLPYPEAIFEISYFKKHPEPFFALAKELYPGQFKPTICHYFMRLLKDKGLLLRCYTQNIDTLERIAGLEQEDLVEAHGTFYTSHCVSASCRHEYPLSWMKEKIFSEVTPKCEDCQSLVKPDIVFFGESLPARFFSCMQSDFLKVDLLLVMGTSLQVQPFASLISKAPLSTPRLLINKEKAGQSDPFLGMIMGLGGGMDFDSKKAYRDVAWLGECDQGCLALAELLGWKKELEDLVRREHASIDAQSGAGVPNPSTSASPKKSPPPAKDEARTTEREKPQ
notes: made in house
**Q.** Which results are given for B1?
**A.** Km [1]: 1.2 ± 0.1 µM; kcat/Km [1]: 38600 M⁻¹ s⁻¹; Km [2]: 0.8 ± 0.1 µM; kcat [2]: 9.6∙10^-2 ± 0.5∙10^-2 s^-1; kcat/Km [2]: 1.25∙10^5 M^-1s^-1; Km [3]: 15.3 ± 2.7 µM; kcat/Km [3]: 156 M⁻¹ s⁻¹; Km [4]: 7.5 ± 1.5 µM; kcat [4]: 2.6∙10^-3 ± 0.2∙10^-3 s^-1; kcat/Km [4]: 3.42∙10^2 M^-1s^-1; Km [5]: 0.1 ± 0.02 µM and 0.12 ± 0.02 µM; Km [6]: 17.7 ± 1.5 µM; Km [7]: 0.7 ± 0.1 µM; kcat [7]: 3.7∙10^-2 ± 0.1∙10^-2 s^-1; kcat/Km [7]: 5.30∙10^4 M^-1s^-1; Km [8]: 0.3 ± 0.04 µM; kcat [8]: 3.9∙10^-2 ± 0.1∙10^-2 s^-1; kcat/Km [8]: 1.18∙10^5 M^-1s^-1; Km [9]: 26.8 ± 2.7 µM; kcat [9]: 3.9∙10^-3 ± 0.2∙10^-3 s^-1; kcat/Km [9]: 1.46∙10^2 M^-1s^-1
